{"source": "the NTF2 design screens of Basanta et al. (2020)"}
{"assay": "protease stability score; higher = more stable; yeast display proteolysis, trypsin and chymotrypsin;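 further: relative to predicted unfolded state with 0 unfolded-like and 1 meaning tenfold more protease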"}
{"sequence": "DEEKHSAEHFMRLWIESFETGDEESIKRLMDPHAKSDFNGVEMHGREYLEVIKREMRVKSSRLHVKHIDVIDGVVIIEGRMILDGEINGVRTRLESDVRFVVEKFDGRWILRSSSIK", "protease stability score": 1.31}
{"sequence": "SEYEEESRIAYELFLETVRTGDEDTSREQADPNVRVDVNGVHLHGRELWAEFVSKYKGMQLDLHHVEIQGNKVTNDGTLTVNGVRRKVHLRINKVNGKWILESVHIH", "protease stability score": 1.32}
{"sequence": "DEEEHIMKHELEKWWETVDTGDEDEMLRLADPNVRVDFNGREFVGREEFLKHVEFMVKEWRLTDRRIEREHVIDGKMIIHMRVHGTFNGKETDTRIEIILHVVDGKVKSEEYRIK", "protease stability score": 2.06}
{"sequence": "DEEERAMEHMVRHLVDDIHTGDWRSLYRFLDPDVRLHVGDKRFHGRDTIVRLLLELLQTWGIDRIHSEVKHVHLQGEKIEAHTKDKYGDFEFSVLVDIFKIDGKWVIERREIS", "protease stability score": 1.08}
{"sequence": "TEEEEKSWRLAEWFFRIIETGNEHEQKRLADPHVQIHIQIDGRHIHLHGWEELMKELKRLGIKYHKIERLRVIGEKIDEEGRLEINGREHDVRIHILIINGRMNSIHIHIE", "protease stability score": 1.66}
{"sequence": "SEEEEEIEKMVRHMIHNLLTGNEDVIDKFVDPHVQLHINGRDIHGRENIRREIRRTLEELGVDHWIVHHIEIRRVGDKAIAINHGTIVINGRNVDTEFIFWLHKVNGRWMVHSYEIRIR", "protease stability score": 1.4}
{"sequence": "REEEKLWEHIFHLFIEDVLTGDEDRLREMLDPNVRLKAEGHDDHGRESMVKFNEELHKEIRFERIHLRRIHIIDGVSFMDVQIDGTVNGKHRSLESEIRIYIVDGRIRMVELRIR", "protease stability score": 1.25}
{"sequence": "SEEEKHVIKMAEILLKSVLTGDWDKIKKMLDPNVKFHFHAENRHEEDHGMERVMDWMIKVRERFDVLEIEVTNSDVYGDKAVVDGRLINIIGDKRIETRVIIIIVVVDGRIHSIYFVIK", "protease stability score": 2.54}
{"sequence": "SEEEHHDRMVSHLWIKLWSTGDEDRIRELLDPNAKFELEQGDKEVHDHGRESIAKWLEIMFRHLGVKHFRLEHVHVFNGRIEVIMRLDVGDKHITIILRTQVIDGRIKSFVIETRHK", "protease stability score": 1.17}
{"sequence": "SEDEIAVKKFMQRWIEAVHTGNEDVLTELADPNYRIIFEGRNLHGMDQILHDVRRVDVLEERMHVTSVDSQGDKIHIHGTLQVHFHVGDKQIDIHTQVTWHMLKIDGVWILKKVEIH", "protease stability score": 1.39}
{"sequence": "DEDEDIVRRHLHKLSKAWRTGDEETEKKLADPHARIQIGDKTDHGMEKMTKDWHEFLREMRVEIRIEDTRVQGDKVVNHIHIHSDIDGKEIILHSRIIVRKIDGRWHIESFVLI", "protease stability score": 0.475}
{"sequence": "DEEEKLLEQLARLILHNLLTGDWKSHMNNADPDVKVTVNGVLVHGREDMSHLYRELLERIPNIQIRVDRVDIQGDKVHARLWVEFDGKERQSELHVRIVNGRIKEETYHEK", "protease stability score": 0.937}
{"sequence": "NEDEESIRRAVEHWSKLILTGDESLLRQMADPNVRIQVGDKRIIGMDSLVKLMEDLGWEMEIRTKIRHTEIINGKMHTRTQLDIHFRQGDKKVDIHRDTEIVIEKVDGRWHIHSIRIE", "protease stability score": 0.752}
{"sequence": "DEDREQYREIMSHIWHSIHTGDEETQEDMADPDARFIIGDKTFIGWKQFYEKLREIRIHIDHVHIRHIEVQGDKFRVEFQIHRTIIYNGRNLHETTEAETHLHVVNGRLHSWSFRVR", "protease stability score": 0.885}
{"sequence": "TEDERILKELAHLLLLLWKTGDENIWRELADPNVRVIFLIGDKEEHHHGRDMFIKLRHDYGVDHMELRRVDVQGDKVRFEGDLWVDGRIHRVHINFSVINGKVHQIKIDFS", "protease stability score": 2.49}
{"sequence": "DDEDHELEWMYRIMLRILETGDEDEYKKFADPNTRLLIDFNGRIIDDHGREHVKRSIFEWLEHARIRRKEKKTERHIDGRVILHMRMDVDVNGRRIDRDVLIIIVVINGKFREVDIQYR", "protease stability score": 0.931}
{"sequence": "SEDHREARHAVHVFLHLLETGDEDHLVKLLDPNVRYVIGDKTHHGWEELERIRNKFKNIRITLRDRDFHIFDGRLLVLIRGELEFDGRRVDFEVITYIEKINGRWIVSEFRIHLN", "protease stability score": 1.5}
{"sequence": "SEEHESSQKAIELLWHSMETGDEKLTEDFADPHVRLEFNGVRFHGRDQMNEIIHRQLREMRLKSIHLHHIYSFNGRVHIHGEVIGRVDGRELSHEMEIVAVKVDGKWVLKSLRIH", "protease stability score": 1.2}
{"sequence": "DEDEEVSRRALEKWIKNFLTGNEDSVLELADPHMRIVQGDKEYHGRHEMRDMMTDWLREIRIKTVEERHFRVIDGRVDHHVTLHGIVNGKETVRRMIVISEKVDGKWILHSLEIR", "protease stability score": 0.907}
{"sequence": "SEDEESSKFALELMWHWEKTGDEKAISELADPHTLNHVNGVDLHGRELVIHFIHHMRIKRVHLKRIEIRMIGDYLDIRIHGRVDGEINGKDRDFHTDLVLIMRKVDGRWFVKSMSVIII", "protease stability score": 1.45}
{"sequence": "SEEKHMYKKLIEEWLKSVITGDEEHIQHLVDPDVRMTIIFENHELRAVGWEEVVRVLKEIRIKHFELRRWDDVNGRVHLDGQMTIQFNGQEHQTSTHIEIMFINGRVKEIRLIIT", "protease stability score": 0.986}
{"sequence": "SEEEHHFERWMRVFLHSMRTGDPSSFEELLDPNTRFIYGDKERHGREEANKWAHHLRITHMEDTDFDVYDGVLTIDIRLDFVVNGRRHEVKTHLLVVKIDGRWLINEVEIK", "protease stability score": 0.514}
{"sequence": "DEDTELMRHIIERLLRSSKTGDEDSMADLLDPNVRIVNEDERLHGRELASRFMYELRIHHFELTRFKVYDGKIDIDGIHDGEINGVRRRVWVEFISVKVNGKWQIKELRIG", "protease stability score": 1.35}
{"sequence": "DEEEETMRNIIMDWFRAMFTGDEERVNELLDPNARIEVGDKEWHGRDEFRKVLEHIRIHTRQIRIRRIDFFENRVHMDVQLDRELRFDGKTERIDVKLELFLVKIDGRWRFKETSVH", "protease stability score": 2.57}
{"sequence": "SEEEDLWKEFLRRLVETSNTGNERILSELFDPRTRIIYNGVDYVGREWALFMFLRADHVHIRIKSVDVQGEKAHVDGRMIQFVGDKEERHEVQLIDVKIDGRWLIRMMTVR", "protease stability score": 1.51}
{"sequence": "SESEDQAHKFSEEWIKAFETGDEEHMNRLVDPNVRIEVGDKEHHGRHVYLEILKRLGANHVRIHIEDIEVQGEKLIIHGKIIITVGDKVIEIRTIIIVTKIDGRWRIKDIIFH", "protease stability score": 1.39}
{"sequence": "SDEEEEERRIAHELRHFWETGDEDAFRDMLDPHTRLQIDINGRHFHLHGREHIVRHLSEVWNKFGVKHLKFHDHHVVNGVTHMDGEENIGDKRRRVRIIIIVVNGRVRMVRIQIE", "protease stability score": 1.45}
{"sequence": "DEHEEFAERNLKLLTELEETGNEDEIRKQADPHVRIEIGDKDIVGMHLWAKWVTHVKDRFDHIEVRLHRVHVQGDKILMHTQLILTQGNYRREFRTEVIIRKINGRWVLHSMHFH", "protease stability score": 1.42}
{"sequence": "SEHDNLMKEKLTLMEHTLMTGDEEVWRELLDPEALTTVDGQHFHGREEVVKFLRKVRRRVDHITSIEIESIDPQGEKLHLDGRNRIKIDGREIELNVVIIMRKINGRWFLRSWNVV", "protease stability score": 1.22}
{"sequence": "SEDEEISKKIIERILETMRTGDEDIMEHLVDPDAKFHDEDHHDHGREAFRWWSEFVKRIAGHDKVEIRQQHVKFQGNKVILHTIVIQGNKIYELIIVMEKFDGRWSISTVHIR", "protease stability score": 1.43}
{"sequence": "SEDEENAKFVLHELYKADETGDERKQSHMMDPNVRIIVGDKEWVGRDEVVELMHEIRVHRVHIDDFRFQGDKIEVHGTTKGEFNGKRDVYHVHWLILKIDGRWRLQSLEVR", "protease stability score": 1.11}
{"sequence": "DDLEREAEEFHRLMHKSVRTGDEKLIEEMFDPNVRLDINGREMHGRHDVVELERRVDHSEWHIEDIRVVGEWADIRGELVIQVGDKEHIYKTRLIVLKIDGKWRTTEMHVR", "protease stability score": 0.731}
{"sequence": "SELEHEMVEFFRLLVHAWRTGNEELAHRLIDPNVRLDVNGRHFHGWEEFFRFYKEIRLKDADLDSFRIIDGRVELDGTMHMEQGDKSRSVESHVLLEKIDGRWIVRSVRFH", "protease stability score": 1.44}
{"sequence": "DDEEEINRRIAETFINNVKTGDEHSMREMMDPNTRLIVGDKHNHGWKEVEKFWREWRRHAGVDHIHVDDVRVIGNKVEIDETINQGDKFRDVRISIITINGRITELRIEIR", "protease stability score": 1.49}
{"sequence": "DEDEETITRTLEFQRESLRTGDWKFIHRLFDPDARFLINGRDRHGRDLLIDILRKLGVEKINLHVHRMSYVGDKMRVETELVVGDFIFDTRLFEEKVNGKWLMRSMEIH", "protease stability score": 0.735}
{"sequence": "SEEEESSERATKILRELLKTGNFRLLLELMDPNARLHTHINGVNIHDHGRNLARWLVERIKNAVIKINDEEVRIFNGRVEVDIDGELLINGRNFRVHEHWIFRKIDGKWFFEEVEIRVE", "protease stability score": 2.16}
{"sequence": "SETREDTRELVESFLNALRTGDEDLLRRLMDPHVKVYFNGREFHGRELATRVESHLRVHDIDVRDMRIIGDKVIIDLQVDGEWDGVRFHRETELHTQKVNGRWFIREIRIH", "protease stability score": 2.23}
{"sequence": "TEDDRIFKEALELWVFAMNTGDERILFEMVDPHVRFVIGDKEYHGMEWRHKVLIELRIHRVRLEITHRDQFNGRIHIDGILQIDGEFNGRRDKTETEVRVTYTKFDGKWYYKEVIHL", "protease stability score": 1.44}
{"sequence": "DEHEELMRTLAEIVLRIFLTGDWDSFSKLADPNYRIDWNGRHTHGMHLAERVLREIHRQIRIDNVILQDMRIQGNKVHNHGTIDGNINGVHDKVQTHVHLILVDGRLKEVEFRHH", "protease stability score": -0.231}
{"sequence": "TEDETIAELALEEFIRILETGDEDDVNRLLDPHVRVDIDGKEIHGREHVYHHLRNLGVRIKIEWKRIRVVDGKVDSDGHVIERFNGRDIEVKSQFIMRKIDGRWVVHHFTRR", "protease stability score": 0.488}
{"sequence": "SEDEHRSHLLLKEFEHLMRTGNEEEIERNLDPHTRLEFNGREFHGREDAREVWRRFGFKHLDSLRFHHLEIQGDKIIIDSRTEMLFNGVHTITRVEFHALKIDGRWLSTELRIG", "protease stability score": 0.919}
{"sequence": "REDEEWLERLLRIIEKAMRTGDEQLTKELFDPNVRLEVGDKIIIGWEELTKIMHEMRVRDSRIHRVRTVGDKVEADTTVNGEIDGREFETEVRIEMLKVDGQWVVDKVHFK", "protease stability score": 1.89}
{"sequence": "DEDHRDAQRLVEHWINVFETGDEEQIEKLLDPNARVIVDGRHVHGRSSVLKFIVDLVREMRVELRLKDLSVVDGRVHVKMEMRIEINGRREETEVDINAEKVDGVWRFKEMFVI", "protease stability score": 2.47}
{"sequence": "GEEQEDIKKFLEDDMEAWSTGDFRQLKRNMDPHVRIVINGRHLHGMETFEHFFEHLRVRITSLELKRVEAVGDKVSYDGELDFELDYNGRRLSQRTRVEFRIEKINGRWILHYVIFR", "protease stability score": 0.329}
{"sequence": "SEDEKEDHELSRHVIETLKTGDWELLSELADPHVRLKVNGKTYIGRELFTETVRRLLDRFKNMTLKIEDIKTVDGRLEIHIFLIVGDKFFELIIIATKVDGRWFEEEMHVHHS", "protease stability score": 0.915}
{"sequence": "DESEEEMKKAFKDLVDSLLTGDEHLLRTFADPNMRLRIGDKTFHGRETYSEIFLKEWKKLGIKHYQVTIHHLEVQGDKIHVDTRVNVHIGDWTIHRETRLHITKVNGQWILRQEDVD", "protease stability score": 0.416}
{"sequence": "DEEEHWAKEFLKIESEAMMTGDEESLIELIDPDARIQIGDKKYHGMEFVKYLFEQERKKLGIERVHVEFELKEIHYQGNYMIVDGIIRRSYGDKTETRRVIIYLIKFDGQWVIESIQFL", "protease stability score": 0.863}
{"sequence": "SEEEEIARELSEEVYRHWHTGDFRMLERYFDPHVRIIYDGRDYHGREIASTVLRETNKEWRTESMEVKDVKFINGKLHVDISSDTLYNGKRVSTSIKIVSVKVDGQWVIHQMKYV", "protease stability score": 1.1}
{"sequence": "SEEKEDAKIALTLLHEVIETGDERLFREMADPRVQIIVNGKELHGWKHFKEMLRILSERYDHMEIKFRDVRVVDGQVDSDVTINLHYDGREDQMEMDIIISKFDGRWFNHQVIFR", "protease stability score": 1.34}
{"sequence": "DEKYKRVEQAVRIYLELISTGDEEMISHYVDPNVQAEVGDYEHHGMEEFIKVVSRVDYLEHSEWKDWRYVDGRIEIEGHLYGKINGKRDVLDIRIIASKVNGKWRLHKVTIK", "protease stability score": 1.41}
